Laboratory results: patent publication US20130045267A1, “METHODS OF USING AGENTS THAT MODULATE CLAUDIN EXPRESSION” (priority 2010, published 2013)
Where “and” joins values, the source holds several entries; their conditions need not be identical. Identical values can stand only once.

Legend:
[1] = test system: HSV-1 strain F; assay: Infectious center assay; type: cell-based, Herpes Simplex Virus (HSV)-1; conditions: 24 h post-infection, n=3
Experimental: Twenty-four hours post-infection, PHK were treated with 0.05% Trypsin-EDTA (Invitrogen/Gibco) for 5 min at 37° C. followed by gently scraping to lift the cells, washed 3 times in DMEM containing 1% HI-FBS, and vortexed for 30 sec to disrupt cell clumps. Alive cells were counted using Trypan blue exclusion and scalar PHK dilutions (1000 to 1 cells in 1 ml of media) were plated onto pre-grown monolayers of Vero cells in six well plates. After 2 h, 1 ml of DMEM containing 5% HI-FBS and 0.4% human-γ-globulin (Sigma; final concentration 0.5 mg/ml) was added to each well. After 3 days incubation at 37° C., cells were fixed (75% MeOH/25% acetic acid) and stained with 0.1% crystal violet. Plaques were counted by 2 independent investigators and results expressed as percent of infected PHK.

[2] = test system: primary human keratinocytes (PHK); assay: Trans Epithelial Electric Resistance (TEER) in PHK monolayers; type: cell-based
Experimental: PHK were plated at a subconfluent density of 2.5−3×10^4 cells/filter in Transwell insert and cultured in Keratinocyte-SFM media until confluent. TEER was measured using an EVOMX voltohmmeter (World Precision Instruments, Sarasota, Fla.). The resistance of cell-free filters was subtracted from each experimental value.
(§1) PHK were plated on glass coverslips at 2-3×10^5 cells/well in a 6-well plate or at 2-3×10^4 cells/filter in Transwell insert (Costar; PET membrane, 0.4 μm pore size, 6.5 mm insert) in Keratinocyte-SFM without antibiotics. The next day after plating, cells were transfected with claudin-1 specific or control (scrambled) siRNAs (Santa Cruz) using Lipofectamine™ 2000 transfection Reagent (Invitrogen). TEER and permeability experiments were conducted 48 hours after PHK were switched to differentiation media.
TEER was measured in PHK as described above. PHK were stimulated with S. aureus-derived peptidoglycan (PGN, 0.2-20 μg/ml, n=3-7) (FIG. 19A), Malp-2 (10-1000 ng/ml, n=3) (FIG. 19B), and Pam3CSK4 a TLR1/2 ligand (0.01-20 μg/ml, n=3-6) (FIG. 19C). Data are presented by analyzing the area under the TEER curve and normalized to the mean values for the control group (media alone)*p<0.05; **p<0.01.

[3] = test system: claudin-1; assay: Western blot of claudin-1 protein in primary human keratinocytes; type: cell-based; conditions: PHK
Experimental: Human keratinocytes were isolated from neonatal foreskin. Poumay et al., “Basal Detachment of the Epidermis Using Dispase: Tissue Spatial Organization and Fate of Integrin Alpha 6 Beta 4 and Hemidesmosomes,” J. Invest. Dermatol. 102:111-7 (1994), which is hereby incorporated by reference in its entirety. PHK were cultured in Keratinocyte-SFM (Invitrogen/Gibco) with 1% Pen/Strep, 0.2% Amphotericin B (Invitrogen/Gibco). To differentiate PHK, cells were grown in DMEM (Invitrogen/Gibco) with 10% heat-inactivated fetal bovine serum (Invitrogen/Gibco) and 1% Pen/Strep, 0.2% Amphotericin B (Invitrogen/Gibco). For TJ modulation experiments, the following cytokines were added alone or in combination to the differentiation media; human IL-4 (50 ng/ml; R&D system) and IL-13 (50 ng/ml; R&D system).
PHK were lysed on ice in RIPA lysis buffer (20 mM Tris, 50 mM NaCl, 2 mM EDTA, 2 mM EGTA, 1% sodium deoxycholate, 1% TX-100, and 2% SDS, pH 7.4), with 1:100 Protease Inhibitor Cocktail (Sigma), 1:100 Phosphatase Inhibitor Cocktail ([…] for 30 min at 4° C. The samples were heated at 95° C. for 10 min and then centrifuged at 14,000 rpm for 15 min. Forty μg of protein, determined by BCA (Pierce) in NuPage LDS Sample Buffer (Invitrogen) was applied to 4-12% NuPage Bis-Tris gels (Invitrogen). Electrophoresis was performed under reducing conditions with MES SDS Buffer (Invitrogen). Membranes were incubated in blotting solution (5% non-fat dry milk in PBS+0.05% Tween 20) at RT for 1 h and then incubated with primary antibodies; claudin-1 (JAY.8; Zymed), occludin (OC/3F10; Zymed) and GAPDH (FL-355; Santa Cruz). An HRP-linked secondary antibody (GE Healthcare) was used with ECL (GE Healthcare) to visualize bands by autoradiography with Kodak BioMax MR film. The pixel intensity of each band was estimated with Image J.
as §1

B1: CLDN1 siRNA: claudin-1 specific siRNA (Santa Cruz), a pool of 3 separate strands, SEQ ID NO: 10-15 (nucleic acid)
chain 1: UACAUAGGCAUAGUUCAUGNN
chain 2: CAUGAACUAUGCCUAUGUANN
chain 3: AACGUAUGCAGUUAAUUCCNN
chain 4: GGAAUUAACUGCAUACGUUNN
chain 5: UGAAGAUCUAUGUAUGUGGNN
chain 6: CCACAUACAUAGAUCUUCANN
modifications: chemistry not given here
[1]
  PHK infected with HSV-1: 38±6% and 38±6.43%
[2]; claudin-1 siRNA, PHK
  reduction in TJ function (electrical resistance and permeability assays): ~50%
[2]; siRNA 100 nM, 48 hours after switch to differentiation media, n=4
  TEER: 80.6±6.4 ohms×cm^2
[2]; siRNA 100 nM, vs scrambled siRNA
  drop in TEER: > 50%
[3]; CLDN1 siRNA, 48 h
  claudin-1 protein by Western blot: dose-dependent reduction
[3]; dose-dependent
  decrease in claudin-1 protein expression compared to scrambled siRNA-transfected cells: ≤ 60%
